Assay type in all cases: biochemical
A short description of experiment [1]: PLA2 activity assay toward plasmenylcholine. The settings on record: for Activity: 100 mM Hepes, 2 mM DTT. The protocol:
(§1) The protein concentration was determined by the Bio-Rad protein assay, using bovine serum albumin (BSA) as standard. Protein purity was examined using 12% SDS-PAGE and Coomassie blue staining. LysoPLA activity was measured at 40° C. in the assay buier containing LysoPC, 100 mM Tris-HCl (pH 8.0) and 10 mM LMe. Cold 1-palmitoyl-sn-glycero-3-phosphorylcholine (125 μM, unless indicated otherwise) was mixed with 1-[14 C]palmitoyl-sn-glycero-3-phosphorylcholine (100,000 cpm) in a total volume of 0.5 ml. The assay was initiated by adding an aliquot of enzyme solution to the substrate mixture and incubating for the desired time. The released fatty acid was extracted by the modified Dole method and then quantified by scintillation counting. The PLA2 activity assay was carried out, using various ^14C-labeled phospholipid substrates under various conditions as given in the text. The rat brain iPLA2 was purified as described elsewhere (H. C. Yang et al., manuscript in preparation incorporated herein). Human recombinant cPLA2 was a gift from Drs. J. D. Sharp and R. M. Kramer at Lilly Laboratories. 1-[^14C]Palmitoyl-sn-glycero-3-phosphorylcholine and 1-palmitoyl-2-[1-^14C]palmitoyl-sn-glycerol-3-phosphorylcholine were purchased from Amersham. 1-Palmitoyl-2-[1-^14C]arachidonoyl-sn-glycerol-3-phosphorylcholine was purchased from DuPont-NEN. All unlabeled phospholipids were purchased from Avanti Polar Lipids. Triton X-100 (TX-100) and PIP2 were obtained from CalBiochem.
The sn-2 labeled PlsCho (plasmenylcholine or 1-O— (Z)-1P-alkenyl-2-arachidonoyl-sn-glycero-3-phosphocholine) was synthesized as follows. A total of 4 μmol [1-14C]arachidonic acid (from NEN, with specific activity […]) was diluted 10 times with cold arachidonic acid in 250 μl distilled methylene chloride (Fisher Scientific). To this 0.04 mmol p(N,N-dimethyl)amino pyridine (Aldrich) and 0.08 mmol 1,3-dicyclohexyl carbodiimide (Aldrich) were added to yield the arachidonoyl anhydride upon 1 h of stirring. Lysoplasmenylcholine (0.06 mmol, from Serdary) dissolved in 200 μl methylene chloride and 50 μl pyridine (Fisher Scienticc) was added to the arachidonoyl anhydride solution with 0.03 μmol dimethylaminopyridine and left stirring for 8 h. The reaction progress was monitored by thin layer chromatography (Merck) using a mobile phase of chloroform:methanol:triethyl amine:water (65:30:1.5:3.5), and retardation factors were 0.6 and 0.2 for PlsCho and LysoPlsCho, respectively. The separation of the product was carried out by preparative layer chromatography (Merck) in the above mobile system. The reaction yielded a total of 3.6 mg (7.7 μmol) of radiolabeled PlsCho (specific activity 0.18 μCi/μmol) by quantitative phosphate analysis.
(§2) When we first purified the mouse LysoPLA from P388D1 cells, no other enzymatic activities (PLA1, PLA2, acyltransferase, transacylase and esterase) were found. Therefore, it appears to be a LysoPL-specific LysoPLA. Similar results were obtained for the rat LysoPLA and the relative rates towards different LysoPL substrates were reported [Sugimoto et al., (1996) J. Biol. Chem. 271, 7705-11]. However, a recently sequenced rabbit enzyme that shares high sequence homology (approx. 97%) to the rat/mouse LysoPLA was reported to have both PLA2 and LysoPLA activities [Portilla, et al., […] J. Am. Soc.Nephrol. 9, 1178-86]. The specific activities, however, were only 10 nmol/min/mg for PLA2 activity and 20 nmol/min/mg for LysoPLA activity. The PLA2 activity was also reported to be selective for PlsCho substrate with arachidonic acid at the sn2 position. To determine whether hLysoPLA also expresses PLA2 activity, we have explored its ability to hydrolyze arachidonic acid labeled PlsCho as well as other phospholipid substrates under a variety of conditions.

Experiment [2] can be described thus: PLA2 activity assay toward PAPC. The settings on record: 100 mM Hepes, 2 mM DTT. As for the experimental part:
as §1, §2

The nature of experiment [3]: PLA2 activity assay toward DPPC. The conditions noted are these: DPPC/TX-100 mixed micelles (100 μM:400 μM); 100 mM Hepes, pH 7.5, 2 mM DTT, 5 mM EDTA. As for the experimental part: as §1, §2

B1: Human Recombinant cPLA2: human recombinant cytosolic Ca2+-dependent phospholipase A2, gift from Lilly Laboratories (protein, UniProt P47712 1-749, looked up)
Cytosolic phospholipase A2: MSFIDPYQHIIVEHQYSHKFTVVVLRATKVTKGAFGDMLDTPDPYVELFISTTPDSRKRTRHFNNDINPVWNETFEFILDPNQENVLEITLMDANYVMDETLGTATFTVSSMKVGEKKEVPFIFNQVTEMVLEMSLEVCSCPDLRFSMALCDQEKTFRQQRKEHIRESMKKLLGPKNSEGLHSARDVPVVAILGSGGGFRAMVGFSGVMKALYESGILDCATYVAGLSGSTWYMSTLYSHPDFPEKGPEEINEELMKNVSHNPLLLLTPQKVKRYVESLWKKKSSGQPVTFTDIFGMLIGETLIHNRMNTTLSSLKEKVNTAQCPLPLFTCLHVKPDVSELMFADWVEFSPYEIGMAKYGTFMAPDLFGSKFFMGTVVKKYEENPLHFLMGVWGSAFSILFNRVLGVSGSQSRGSTMEEELENITTKHIVSNDSSDSDDESHEPKGTENEDAGSDYQSDNQASWIHRMIMALVSDSALFNTREGRAGKVHNFMLGLNLNTSYPLSPLSDFATQDSFDDDELDAAVADPDEFERIYEPLDVKSKKIHVVDSGLTFNLPYPLILRPQRGVDLIISFDFSARPSDSSPPFKELLLAEKWAKMNKLPFPKIDPYVFDREGLKECYVFKPKNPDMEKDCPTIIHFVLANINFRKYRAPGVPRETEEEKEIADFDIFDDPESPFSTFNFQYPNQAFKRLHDLMHFNTLNNIDVIKEAMVESIEYRRQNPSRCSVSLSNVEARRFFNKEFLSKPKA
For B1, the Activity in experiment [1] (PisCho/PIP2/TX-100 mixed micelles (100 μM:3 μM:600 μM), pH 7.5, 80 μM Ca2+, 0.1 mg/ml BSA) worked out at 13.58 ± 0.05 µmol/min/mg; in experiment [2] (PAPC/PIP2/TX-100 mixed micelles (97 μM:3 μM:400 μM), pH 7.5, 80 μM Ca2+, 0.1 mg/ml BSA), 21.81 ± 0.09 µmol/min/mg. Further, the “activity toward PlsCho relative to activity toward PAPC” value in experiment [1] (in the presence of 3 mol % PIP2, same conditions) is given as “about 60%”.

B2: Rat brain iPLA2: Ca2+-independent phospholipase A2 purified from rat brain (protein, UniProt P97570 1-807, looked up)
85/88 kDa calcium-independent …: MQFFGRLVNTLSSVTNLFSNPFRVKEVSLADYASSERVREEGQLILLQNASNRTWDCVLVSPRNPQSGFRLFQLESEADALVNFQQYSSQLPPFYESSVQVLHVEVLQHLTDLIRNHPSWTVTHLAVELGIRECFHHSRIISCANSTENEEGCTPLHLACRKGDSEILVELVQYCHAQMDVTDNKGETAFHYAVQGDNPQVLQLLGKNASAGLNQVNNQGLTPLHLACQMGKQEMVRVLLLCNARCNIMGPGGFPIHTAMKFSQKGCAEMIISMDSNQIHSKDPRYGASPLHWAKNAEMARMLLKRGCDVDSTSASGNTALHVAVTRNRFDCVMVLLTYGANAGARGEHGNTPLHLAMSKDNMEMVKALIVFGAEVDTPNDFGETPAFIASKISKLITRKALLTLLKTVGADYHFPFIQGVSTEQSSAAGPHPFFSLDRTQPPTISLNNLELQDLMPVSRARKPAFILSSMRDEKRSHDHLLCLDGGGVKGLVIIQLLIAIEKASGVATKDLFDWVAGTSTGGILALAILHSKSMAYMRGVYFRMKDEVFRGSRPYESGPLEEFLKREFGEHTKMTDVKKPKVMLTGTLSDRQPAELHLFRNYDAPEAVREPRCTPNINLKPPTQPADQLVWRAARSSGAAPTYFRPNGRFLDGGLLANNPTLDAMTEIHEYNQDMIRKGQGNKVKKLSIVVSLGTGKSPQVPVTCVDVFRPSNPWELAKTVFGAKELGKMVVDCCTDPDGRAVDRARAWCEMVGIQYFRLNPQLGSDIMLDEVSDAVLVNALWETEVYIYEHREEFQKLVQLLLSP
For B2, the Activity in experiment [1] (PisCho/TX-100 mixed micelles (100 μM:600 μM), pH 7.5, 5 mM EDTA) worked out at 0.53 ± 0.03 µmol/min/mg; in experiment [3], 5.6 ± 0.2 µmol/min/mg; in experiment [2] (PAPC/TX-100 mixed micelles (100 μM:400 μM), pH 7.5, 5 mM EDTA) it was 2.0 ± 0.04 µmol/min/mg. The “fold lower activity toward PlsCho than toward DPPC” value in experiment [1] (TX-100 mixed micelles) was determined as 10 fold. For the same molecule, the “fold lower activity toward PlsCho than toward PAPC” value in experiment [1] (TX-100 mixed micelles) is 4 fold.
